B1: BACH1 (protein, UniProt O14867 1-736, looked up)
Transcription regulator …: MSLSENSVFAYESSVHSTNVLLSLNDQRKKDVLCDVTIFVEGQRFRAHRSVLAACSSYFHSRIVGQADGELNITLPEEVTVKGFEPLIQFAYTAKLILSKENVDEVCKCVEFLSVHNIEESCFQFLKFKFLDSTADQQECPRKKCFSSHCQKTDLKLSLLDQRDLETDEVEEFLENKNVQTPQCKLRRYQGNAKASPPLQDSASQTYESMCLEKDAALALPSLCPKYRKFQKAFGTDRVRTGESSVKDIHASVQPNERSENECLGGVPECRDLQVMLKCDESKLAMEPEETKKDPASQCPTEKSEVTPFPHNSSIDPHGLYSLSLLHTYDQYGDLNFAGMQNTTVLTEKPLSGTDVQEKTFGESQDLPLKSDLGTREDSSVASSDRSSVEREVAEHLAKGFWSDICSTDTPCQMQLSPAVAKDGSEQISQKRSECPWLGIRISESPEPGQRTFTTLSSVNCPFISTLSTEGCSSNLEIGNDDYVSEPQQEPCPYACVISLGDDSETDTEGDSESCSAREQECEVKLPFNAQRIISLSRNDFQSLLKMHKLTPEQLDCIHDIRRRSKNRIAAQRCRKRKLDCIQNLESEIEKLQSEKESLLKERDHILSTLGETKQNLTGLCQKVCKEAALSQEQIQILAKYSAADCPLSFLISEKDKSTPDGELALPSIFSLSDRPPAVLPPCARGNSEPGYARGQESQQMSTATSEQAGPAEQCRQSGGISDFCQQMTDKCTTDE
B2: LAT (protein, UniProt O43561 1-262, looked up)
Linker for activation of …: MEEAILVPCVLGLLLLPILAMLMALCVHCHRLPGSYDSTSSDSLYPRGIQFKRPHTVAPWPPAYPPVTSYPPLSQPDLLPIPRSPQPLGGSHRTPSSRRDSDGANSVASYENEGASGIRGAQAGWGVWGPSWTRLTPVSLPPEPACEDADEDEDDYHNPGYLVVLPDSTPATSTAAPSAPALSTPGIRDSAFSMESIDDYVNVPESGESAEASLDGSREYVNVSQELHPGAAKTEPAALSSQEAEEVEEEGAPDYENLQELN
B3: PVR (protein, UniProt P15151 21-417, looked up)
Poliovirus receptor: WPPPGTGDVVVQAPTQVPGFLGDSVTLPCYLQVPNMEVTHVSQLTWARHGESGSMAVFHQTQGPSYSESKRLEFVAARLGAELRNASLRMFGLRVEDEGNYTCLFVTFPQGSRSVDIWLRVLAKPQNTAEVQKVQLTGEPVPMARCVSTGGRPPAQITWHSDLGGMPNTSQVPGFLSGTVTVTSLWILVPSSQVDGKNVTCKVEHESFEKPQLLTVNLTVYYPPEVSISGYDNNWYLGQNEATLTCDARSNPEPTGYNWSTTMGPLPPFAVAQGAQLLIRPVDKPINTTLICNVTNALGARQAELTVQVKEGPPSEHSGISRNAIIFLVLGILVFLILLGIGIYFYWSKCSREVLWHCHLCPSSTEHASASANGHVSYSAVSRENSSSQDPQTEGTR
B4: TXLNA (protein, UniProt P40222 1-546, looked up)
Alpha-taxilin: MKNQDKKNGAAKQSNPKSSPGQPEAGPEGAQERPSQAAPAVEAEGPGSSQAPRKPEGAQARTAQSGALRDVSEELSRQLEDILSTYCVDNNQGGPGEDGAQGEPAEPEDAEKSRTYVARNGEPEPTPVVNGEKEPSKGDPNTEEIRQSDEVGDRDHRRPQEKKKAKGLGKEITLLMQTLNTLSTPEEKLAALCKKYAELLEEHRNSQKQMKLLQKKQSQLVQEKDHLRGEHSKAVLARSKLESLCRELQRHNRSLKEEGVQRAREEEEKRKEVTSHFQVTLNDIQLQMEQHNERNSKLRQENMELAERLKKLIEQYELREEHIDKVFKHKDLQQQLVDAKLQQAQEMLKEAEERHQREKDFLLKEAVESQRMCELMKQQETHLKQQLALYTEKFEEFQNTLSKSSEVFTTFKQEMEKMTKKIKKLEKETTMYRSRWESSNKALLEMAEEKTVRDKELEGLQVKIQRLEKLCRALQTERNDLNKRVQDLSAGGQGSLTDSGPERRPEGPGAQAPSSPRVTEAPCYPGAPSTEASGQTGPQEPTSARA
B5: MEPE (protein, UniProt Q9NQ76 18-525, looked up)
Matrix extracellular …: PTFQPQTEKTKQSCVEEQRQEEKNKDNIGFHHLGKRINQELSSKENIVQERKKDLSLSEASENKGSSKSQNYFTNRQRLNKEYSISNKENTHNGLRMSIYPKSTGNKGFEDGDDAISKLHDQEEYGAALIRNNMQHIMGPVTAIKLLGEENKENTPRNVLNIIPASMNYAKAHSKDKKKPQRDSQAQKSPVKSKSTHRIQHNIDYLKHLSKVKKIPSDFEGSGYTDLQERGDNDISPFSGDGQPFKDIPGKGEATGPDLEGKDIQTGFAGPSEAESTHLDTKKPGYNEIPEREENGGNTIGTRDETAKEADAVDVSLVEGSNDIMGSTNFKELPGREGNRVDAGSQNAHQGKVEFHYPPAPSKEKRKEGSSDAAESTNYNEIPKNGKGSTRKGVDHSNRNQATLNEKQRFPSKGKSQGLPIPSRGLDNEIKNEMDSFNGPSHENIITHGRKYHYVPHRQNNSTRNKGMPQGKGSWGRQPHSNRRFSSRRRDDSSESSDSGSSSESDGD
B6: SERPINA5 (protein, UniProt P05154 26-406, looked up)
Plasma serine protease …: EMKKRVEDLHVGATVAPSSRRDFTFDLYRALASAAPSQSIFFSPVSISMSLAMLSLGAGSSTKMQILEGLGLNLQKSSEKELHRGFQQLLQELNQPRDGFQLSLGNALFTDLVVDLQDTFVSAMKTLYLADTFPTNFRDSAGAMKQINDYVAKQTKGKIVDLLKNLDSNAVVIMVNYIFFKAKWETSFNHKGTQEQDFYVTSETVVRVPMMSREDQYHYLLDRNLSCRVVGVPYQGNATALFILPSEGKMQQVENGLSEKTLRKWLKMFKKRQLELYLPKFSIEGSYQLEKVLPSLGISNVFTSHADLSGISNHSNIQVSEMVHKAVVEVDESGTRAAAATGTIFTFRSARLNSQRLVFNRPFLMFIVDNNILFLGKVNRP
B7: PAM (protein, UniProt P19021 31-973, looked up)
Peptidyl-glycine …: FKETTRPFSNECLGTTRPVVPIDSSDFALDIRMPGVTPKQSDTYFCMSMRIPVDEEAFVIDFKPRASMDTVHHMLLFGCNMPSSTGSYWFCDEGTCTDKANILYAWARNAPPTRLPKGVGFRVGGETGSKYFVLQVHYGDISAFRDNNKDCSGVSLHLTRLPQPLIAGMYLMMSVDTVIPAGEKVVNSDISCHYKNYPMHVFAYRVHTHHLGKVVSGYRVRNGQWTLIGRQSPQLPQAFYPVGHPVDVSFGDLLAARCVFTGEGRTEATHIGGTSSDEMCNLYIMYYMEAKHAVSFMTCTQNVAPDMFRTIPPEANIPIPVKSDMVMMHEHHKETEYKDKIPLLQQPKREEEEVLDQGDFYSLLSKLLGEREDVVHVHKYNPTEKAESESDLVAEIANVVQKKDLGRSDAREGAEHERGNAILVRDRIHKFHRLVSTLRPPESRVFSLQQPPPGEGTWEPEHTGDFHMEEALDWPGVYLLPGQVSGVALDPKNNLVIFHRGDHVWDGNSFDSKFVYQQIGLGPIEEDTILVIDPNNAAVLQSSGKNLFYLPHGLSIDKDGNYWVTDVALHQVFKLDPNNKEGPVLILGRSMQPGSDQNHFCQPTDVAVDPGTGAIYVSDGYCNSRIVQFSPSGKFITQWGEESSGSSPLPGQFTVPHSLALVPLLGQLCVADRENGRIQCFKTDTKEFVREIKHSSFGRNVFAISYIPGLLFAVNGKPHFGDQEPVQGFVMNFSNGEIIDIFKPVRKHFDMPHDIVASEDGTVYIGDAHTNTVWKFTLTEKLEHRSVKKAGIEVQEIKEAEAVVETKMENKPTSSELQKMQEKQKLIKEPGSGVPVVLITTLLVIPVVVLLAIAIFIRWKKSRAFGDSEHKLETSSGRVLGRFRGKGSGGLNLGNFFASRKGYSRKGFDRLSTEGSDQEKEDDGSESEEEYSAPLPALAPSSS
B8: CST5 (protein, UniProt P28325 21-142, looked up)
Cystatin-D: GSASAQSRTLAGGIHATDLNDKSVQCALDFAISEYNKVINKDEYYSRPLQVMAAYQQIVGGVNYYFNVKFGRTTCTKSQPNLDNCPFNDQPKLKEEEFCSFQINEVPWEDKISILNYKCRKV
B9: NFKBIE (protein, UniProt O00221 1-500, looked up)
NF-kappa-B inhibitor epsilon: MNQRRSESRPGNHRLQAYAEPGKGDSGGAGPLSGSARRGRGGGGAIRVRRPCWSGGAGRGGGPAWAVRLPTVTAGWTWPALRTLSSLRAGPSEPHSPGRRPPRAGRPLCQADPQPGKAARRSLEPDPAQTGPRPARAAGMSEARKGPDEAEESQYDSGIESLRSLRSLPESTSAPASGPSDGSPQPCTHPPGPVKEPQEKEDADGERADSTYGSSSLTYTLSLLGGPEAEDPAPRLPLPHVGALSPQQLEALTYISEDGDTLVHLAVIHEAPAVLLCCLALLPQEVLDIQNNLYQTALHLAVHLDQPGAVRALVLKGASRALQDRHGDTALHVACQRQHLACARCLLEGRPEPGRGTSHSLDLQLQNWQGLACLHIATLQKNQPLMELLLRNGADIDVQEGTSGKTALHLAVETQERGLVQFLLQAGAQVDARMLNGCTPLHLAAGRGLMGISSTLCKAGADSLLRNVEDETPQDLTEESLVLLPFDDLKISGKLLLCTD
B10: hOSCAR (protein, UniProt Q8IYS5 19-282, looked up)
Osteoclast-associated …: DITPSVPPASYHPKPWLGAQPATVVTPGVNVTLRCRAPQPAWRFGLFKPGEIAPLLFRDVSSELAEFFLEEVTPAQGGIYRCCYRRPDWGPGVWSQPSDVLELLVTEELPRPSLVALPGPVVGPGANVSLRCAGRLRNMSFVLYREGVAAPLQYRHSAQPWADFTLLGARAPGTYSCYYHTPSAPYVLSQRSEVLVISWEGEGPEARPASSAPGMQAPGPPPSDPGAQAPSLSSFRPRGLVLQPLLPQTQDSWDPAPPPSDPGV
B11: ST3GAL1 (protein, UniProt Q11201 1-340, looked up)
CMP-N-acetylneuraminate-beta-g …: MVTLRKRTLKVLTFLVLFIFLTSFFLNYSHTMVATTWFPKQMVLELSENLKRLIKHRPCTCTHCIGQRKLSAWFDERFNQTMQPLLTAQNALLEDDTYRWWLRLQREKKPNNLNDTIKELFRVVPGNVDPMLEKRSVGCRRCAVVGNSGNLRESSYGPEIDSHDFVLRMNKAPTAGFEADVGTKTTHHLVYPESFRELGDNVSMILVPFKTIDLEWVVSAITTGTISHTYIPVPAKIRVKQDKILIYHPAFIKYVFDNWLQGHGRYPSTGILSVIFSMHVCDEVDLYGFGADSKGNWHHYWENNPSAGAFRKTGVHDADFESNVTATLASINKIRIFKGR

Tested on: plasma proteins
Test: Plasma proteins modulated between baseline and day 28 in responders (CR, VGPR, PR; n = 19), Example 6 (Table 13)
Format: in vivo, human
Settings: plasma protein (OLINK NPX); responders (CR, VGPR, PR; n = 19); itacitinib 200 mg or 300 mg QD with corticosteroids; day 28 vs baseline
Outline: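 Plasma at baseline/screening and day 28 profiled for >1000 proteins by OLINK proximity extension assay, reported as NPX (log2). Steroid-naive and steroid-refractory patients pooled. Paired and unpaired t tests, ANOVA and Pearson correlation applied; significance at P<0.05.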

| Molecule | Fold Change, Decreased Expression from Baseline to Day 28 | Fold Change, Increased Expression from Baseline to Day 28 |
| --- | --- | --- |
| B1 | −1.4794 |  |
| B2 | −2.049 |  |
| B3 |  | 1.1964 |
| B4 | −1.5277 |  |
| B5 | −1.4941 |  |
| B6 |  | 1.2683 |
| B7 |  | 1.1653 |
| B8 |  | 1.3521 |
| B9 | −1.2885 |  |
| B10 | −1.2603 |  |
| B11 |  | 1.3415 |
